Source: paper PMC7961048 (2021)
Where two headings read alike, the source gives them in different places. Non-standard residues stand in square brackets, D forms with d. No end group written: not given here. *: point of attachment. FITC = O=C1OC2(c3ccc(O)cc3Oc3cc(O)ccc32)c2ccc(NC(=S)*)cc21; Biotin = O=C1N[C@H]2[C@H](CS[C@H]2CCCCC(=O)*)N1; pT = C[C@@H](OP(=O)(O)O)[C@H](N)C(=O)O; ttds = NCCCOCCOCCOCCCNC(=O)CCC(=O)*; pS = N[C@@H](COP(=O)(O)O)C(=O)O

T1: full-length human 14-3-3ε fused to the C terminus of MBP (human, UniProt P62258 1-255)
T1 chain: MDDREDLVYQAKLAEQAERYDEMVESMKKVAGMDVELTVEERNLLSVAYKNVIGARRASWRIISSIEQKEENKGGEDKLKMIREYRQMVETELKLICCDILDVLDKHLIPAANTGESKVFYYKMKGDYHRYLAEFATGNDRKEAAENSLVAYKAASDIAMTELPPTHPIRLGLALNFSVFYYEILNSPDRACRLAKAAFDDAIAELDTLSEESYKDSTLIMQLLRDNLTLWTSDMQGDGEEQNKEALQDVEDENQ

T2: full-length human 14-3-3β fused to the C terminus of MBP (human, UniProt P31946 1-246)
T2 chain: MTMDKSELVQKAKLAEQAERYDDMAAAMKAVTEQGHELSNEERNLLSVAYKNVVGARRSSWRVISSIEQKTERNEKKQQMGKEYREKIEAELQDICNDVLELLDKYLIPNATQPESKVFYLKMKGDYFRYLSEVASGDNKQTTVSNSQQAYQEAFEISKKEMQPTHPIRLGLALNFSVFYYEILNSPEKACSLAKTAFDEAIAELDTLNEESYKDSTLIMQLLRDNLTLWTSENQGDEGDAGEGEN

T3: full-length human 14-3-3η fused to the C terminus of MBP (human, UniProt Q04917 1-246)
T3 chain: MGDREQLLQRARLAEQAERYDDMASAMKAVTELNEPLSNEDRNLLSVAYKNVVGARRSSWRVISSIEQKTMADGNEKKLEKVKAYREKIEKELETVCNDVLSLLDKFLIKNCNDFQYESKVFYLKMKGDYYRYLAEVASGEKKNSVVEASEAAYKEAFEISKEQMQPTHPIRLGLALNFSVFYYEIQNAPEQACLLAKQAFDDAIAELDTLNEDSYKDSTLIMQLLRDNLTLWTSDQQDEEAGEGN

T4: full-length human 14-3-3τ fused to the C terminus of MBP (human, UniProt P27348 1-245)
T4 chain: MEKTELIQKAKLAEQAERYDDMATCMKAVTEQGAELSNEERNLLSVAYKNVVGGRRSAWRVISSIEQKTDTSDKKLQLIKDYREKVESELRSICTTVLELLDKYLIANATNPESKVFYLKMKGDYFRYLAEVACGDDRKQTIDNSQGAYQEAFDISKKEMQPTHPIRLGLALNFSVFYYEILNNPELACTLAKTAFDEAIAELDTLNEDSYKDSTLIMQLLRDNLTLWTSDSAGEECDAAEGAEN

T5: full-length human 14-3-3σ fused to the C terminus of MBP (human, UniProt P31947 1-248)
T5 chain: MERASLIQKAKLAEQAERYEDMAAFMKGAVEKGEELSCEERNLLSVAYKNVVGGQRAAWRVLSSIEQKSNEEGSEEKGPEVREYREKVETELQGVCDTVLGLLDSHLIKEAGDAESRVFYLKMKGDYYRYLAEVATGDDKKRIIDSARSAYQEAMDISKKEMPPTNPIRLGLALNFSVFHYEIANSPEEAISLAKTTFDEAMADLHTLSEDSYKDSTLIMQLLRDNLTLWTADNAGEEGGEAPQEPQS

T6: unfused 14-3-3τ devoid of the flexible C-terminal tail (human)
T6 chain: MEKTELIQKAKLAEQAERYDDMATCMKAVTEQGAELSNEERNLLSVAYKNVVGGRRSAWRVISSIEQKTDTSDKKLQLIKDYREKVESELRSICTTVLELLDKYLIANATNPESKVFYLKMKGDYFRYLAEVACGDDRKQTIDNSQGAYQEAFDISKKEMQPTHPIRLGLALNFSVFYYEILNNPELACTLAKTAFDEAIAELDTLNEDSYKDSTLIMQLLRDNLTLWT

T7: unfused 14-3-3β devoid of the flexible C-terminal tail (human)
T7 chain: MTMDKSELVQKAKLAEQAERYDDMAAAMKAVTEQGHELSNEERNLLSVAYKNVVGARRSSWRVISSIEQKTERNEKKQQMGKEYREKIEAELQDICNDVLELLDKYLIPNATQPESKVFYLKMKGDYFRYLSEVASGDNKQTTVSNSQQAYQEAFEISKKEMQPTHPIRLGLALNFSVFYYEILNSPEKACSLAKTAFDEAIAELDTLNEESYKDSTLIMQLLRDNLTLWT

T8: unfused 14-3-3ε devoid of the flexible C-terminal tail (human)
T8 chain: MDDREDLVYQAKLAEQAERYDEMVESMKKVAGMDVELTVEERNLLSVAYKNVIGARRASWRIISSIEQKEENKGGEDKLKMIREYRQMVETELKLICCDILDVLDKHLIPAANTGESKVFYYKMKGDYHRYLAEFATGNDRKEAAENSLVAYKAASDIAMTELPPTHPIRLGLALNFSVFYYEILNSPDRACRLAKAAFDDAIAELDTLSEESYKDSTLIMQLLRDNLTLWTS

B1: full-length human 14-3-3γ fused to the C terminus of MBP (natural protein)
chain: MVDREQLVQKARLAEQAERYDDMAAAMKNVTELNEPLSNEERNLLSVAYKNVVGARRSSWRVISSIEQKTSADGNEKKIEMVRAYREKIEKELEAVCQDVLSLLDNYLIKNCSETQYESKVFYLKMKGDYYRYLAEVATGEKRATVVESSEKAYSEAHEISKEHMQPTHPIRLGLALNYSVFYYEIQNAPEQACHLAKTAFDDAIAELDTLNEDSYKDSTLIMQLLRDNLTLWTSDQQDDDGGEGNN
B2: full-length human 14-3-3ζ fused to the C terminus of MBP (natural protein)
chain: MDKNELVQKAKLAEQAERYDDMAACMKSVTEQGAELSNEERNLLSVAYKNVVGARRSSWRVVSSIEQKTEGAEKKQQMAREYREKIETELRDICNDVLSLLEKFLIPNASQAESKVFYLKMKGDYYRYLAEVAAGDDKKGIVDQSQQAYQEAFEISKKEMQPTHPIRLGLALNFSVFYYEILNSPEKACSLAKTAFDEAIAELDTLSEESYKDSTLIMQLLRDNLTLWTSDTQGDEAEAGEGGEN

Legend:
[1] = target: T1, full-length human 14-3-3ε fused to the …; test: FP
[2] = target: T2, full-length human 14-3-3β fused to the …; test: FP
[3] = target: T3, full-length human 14-3-3η fused to the …; test: FP
[4] = target: T4, full-length human 14-3-3τ fused to the …; test: FP
[5] = target: B1; test: FP
[6] = target: T5, full-length human 14-3-3σ fused to the …; test: FP
[7] = target: B2; test: FP
[8] = target: T1, full-length human 14-3-3ε fused to the …; test: FP
[9] = target: T2, full-length human 14-3-3β fused to the …; test: FP
[10] = target: T3, full-length human 14-3-3η fused to the …; test: FP
[11] = target: T4, full-length human 14-3-3τ fused to the …; test: FP
[12] = target: B1; test: FP
[13] = target: T5, full-length human 14-3-3σ fused to the …; test: FP
[14] = target: B2; test: FP
[15] = target: T6, unfused 14-3-3τ devoid of the flexible …; test: FP
[16] = target: T7, unfused 14-3-3β devoid of the flexible …; test: FP
[17] = target: T8, unfused 14-3-3ε devoid of the flexible …; test: FP
[18] = target: B1; test: FP; with FSC
[19] = target: T9, HPV35 E6 phospho-PBM peptide p35E6 (human papillomavirus type 35); test: FP
[20] = target: T10, HPV33 E6 phospho-PBM peptide p33E6 (human papillomavirus type 33); test: FP; with FSC
[21] = target: T9, HPV35 E6 phospho-PBM peptide p35E6; test: FP; +FSC
[22] = target: T10, HPV33 E6 phospho-PBM peptide p33E6; test: FP; +FSC
[23] = target: T9, HPV35 E6 phospho-PBM peptide p35E6; test: FP; remark: listed apart in the source
[24] = target: T10, HPV33 E6 phospho-PBM peptide p33E6; test: FP
[25] = target: T10, HPV33 E6 phospho-PBM peptide p33E6; test: FP; remark: listed apart in the source
[26] = target: T9, HPV35 E6 phospho-PBM peptide p35E6; test: FP; with FSC

{Biotin-ttds}-RRVRKLPST[pT]L [RSK1 phospho-PBM peptide RSK1_-1P]
Kd [1]: 1580 nM
Kd [2]: 740 nM
Kd [3]: 460 nM
Kd [4]: 780 nM
Kd [5]: 310 nM
Kd [6]: 1.71 µM
Kd [7]: 960 nM
Kd [8]: 1600 nM
Kd [9]: 700 nM
Kd [10]: 500 nM
Kd [11]: 800 nM
Kd [12]: 300 nM
Kd [13]: 1700 nM
Kd [14]: 1000 nM

{FITC}-WLRRA[pS]APLPGLK [fluorescently labeled HSPB6 phosphopeptide (fpB6)]
Kd [1]: 7170 nM
Kd [15]: 6.53 µM
Kd [2]: 5220 nM
Kd [3]: 2470 nM
Kd [16]: 3.75 µM
Kd [4]: 9000 nM
Kd [17]: 5.27 µM
Kd [5]: 1950 nM
Kd [6]: 9.62 µM
Kd [7]: 4760 nM
Kd [18]: 4.4 µM

{Biotin-ttds}-RRVRKLPS[pT]TL [RSK1 phospho-PBM peptide RSK1_-2P]
Kd [1]: 1220 nM
Kd [2]: 960 nM
Kd [3]: 660 nM
Kd [4]: 450 nM
Kd [6]: 3.57 µM
Kd [7]: 1540 nM
Kd [8]: 1200 nM
Kd [9]: 1000 nM
Kd [10]: 700 nM
Kd [11]: 500 nM
Kd [12]: 200 nM
Kd [13]: 3600 nM
Kd [14]: 1500 nM

B1
Kd [19]: 125 µM
Kd [20]: 2.15 µM
Kd [21]: 228 µM
Kd [22]: 2.2 µM
Kd [23]: 125 µM
Kd [24]: 900 nM

B2
Kd [19]: 191 µM
Kd [25]: 2720 nM
Kd [26]: 294 µM
Kd [20]: 3.94 µM
Kd [21]: 294 µM
Kd [22]: 3.9 µM
Kd [23]: 191 µM
Kd [24]: 2700 nM
